Experimental data reported in the supplement of paper PMC12042874.
± gives the uncertainty stated by the source.

Assay: amyloid nucleation score (Sup35N fusion, yeast selection) (log enrichment); library NNK3; higher = more nucleation; inactive = no reads after selection
Outline: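 Nucleation score: DiMSum log enrichment of output over input reads, centred on the mode score of non-aggregating sequences. Only sequences with at least 100 input reads were kept. Reads came from Illumina sequencing of plasmid inserts before and after 7 days of growth at 30°C without adenine and uracil, in psi-negative yeast expressing Sup35N fused to peptides of 20 random codons after 24 hours of induction with 100 μM copper sulfate.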

Row | Substance | amyloid nucleation score
1 | SFSYFRVSFEYGRCHRYAEN | inactive
2 | SFSYWGKDRSRVSNL | inactive
3 | SFTIIMALCSV | inactive
4 | SFVKWVKNQHF | inactive
5 | SFVQLMFLFGT | 1.83 ± 0.076
6 | SFVYCIVYLQSPFVLSTMVG | 2.62 ± 0.078
7 | SGDKSYRSRYHWMGIQRVNR | inactive
8 | SGIAGECFAM | inactive
9 | SGIYTMVWAFGFDVLYLLVS | inactive
10 | SGKDIALMVHCVTVMWDQAY | inactive
11 | SGLIQNTRR | -0.428 ± 1.1
12 | SGLKQSPQLVLCAVRPRRSN | inactive
13 | SGMDSKRKDSCLLCVHFHVS | inactive
14 | SGMLKRFSALRGISASVVGV | inactive
15 | SGPGRSACSFYNAIFMRRFQ | inactive
16 | SGRIRVSKSSTGKSLSTSII | inactive
17 | SGVRANFDFLASVAAHPLNS | inactive
18 | SGVTHDHLTYVLGGGKVVSR | inactive
19 | SHSWQLSYSKSRYVIDAIAR | inactive
20 | SHVWPLLMYHGGIVWSKS | inactive
21 | SIDDGLSYLMGKVKIHKSGK | inactive
22 | SIESMCPVYILVVAPEMCR | inactive
23 | SIFPF | inactive

Row | Substance | amyloid nucleation score
24 | SIFRKINMYL | inactive
25 | SIGWSLCENRRQPGSRWSLP | inactive
26 | SIHLMWRQCYFSLLCVNKGM | inactive
27 | SIILVYKLE | inactive
28 | SIKFYLRLMTSLKVKLY | inactive
29 | SILGFT | inactive
30 | SILKGGFCYMNFRSGKWGV | inactive
31 | SILLLDSEGSMNLEAIV | inactive
32 | SILMMGNLFKLLRKF | inactive
33 | SILSPYLV | inactive
34 | SIQYIYFDASQMRIENSRSL | 2.37 ± 0.059
35 | SIRVINKRHCCSSGDWREDR | 1.78 ± 0.081
36 | SIRYFRLSGMMSMYFFCFVV | 0.952 ± 0.14
37 | SISAALWAFL | inactive
38 | SISCKKVGGSKASQRPYKA | inactive
39 | SIVICS | inactive
40 | SIYCANQRSLVYHYVLAFTT | inactive
41 | SIYYSAILMGYWMDVKSLQY | inactive
42 | SKCEMMRTLEESDDVSFVVK | inactive
43 | SKCVYAVWCACVFARF | inactive
44 | SKESTNSVRCVFITVSPTRR | 0.976 ± 0.21
45 | SKFCSGSLFMIRCILGSRYL | inactive
46 | SKKPVEMTRNI | inactive

Row | Substance | amyloid nucleation score
47 | SKKSRSLNWFLLVNRTPDAG | inactive
48 | SKMRRSFCPIWFSRWSFLST | inactive
49 | SKWSTEFLTCHT | inactive
50 | SKWYLFITGFRYMWFVRFNV | inactive
51 | SLAAIYSFVYFSSDVIRSHY | 1.34 ± 0.15
52 | SLAGEHPRPIVG | inactive
53 | SLASYLFTVTATNRYCERGA | 0.996 ± 0.12
54 | SLCFGTP | inactive
55 | SLCFRSIINIGFFK | 2.15 ± 0.056
56 | SLCGLFRYAWYQFEFNDVRA | 0.977 ± 0.12
57 | SLCSVLIMHPSNSDRF | 0.101 ± 0.75
58 | SLDKSMSGKRSLVRADSTLS | -0.046 ± 0.88
59 | SLDSYDTDLKGVCCQVFCIK | 3.24 ± 0.062
60 | SLEVINVVRININNQEYIYL | 0.276 ± 0.23
61 | SLFMMWLYVCQLYCLFDGIE | inactive
62 | SLGLHIWFCTLLAIWTLLLL | inactive
63 | SLGLNTPAREFYWGCILTFG | inactive
64 | SLGQLYDLGSRW | -0.805 ± 1.7
65 | SLKCLLLVMTCSLTSHAPPA | inactive
66 | SLKELRVSLSSLCACDSNNN | inactive
67 | SLLRDVKG | -0.487 ± 1.4
68 | SLLSEMSTR | inactive
69 | SLLWCKANPKRF | inactive

Row | Substance | amyloid nucleation score
70 | SLMKPKSVMEAKVIRINLCL | 0.494 ± 0.28
71 | SLMTVRVNHK | 0.621 ± 0.2
72 | SLRHLDFFRLTGFWHFYALD | inactive
73 | SLRRKIGLLIFFDNLIF | inactive
74 | SLRSCVYPMDDGIMQCWSSR | inactive
75 | SLRSYSGILSFYGYSGKIST | inactive
76 | SLSLNIQGSNYFLHIVNIGR | inactive
77 | SLSTSNLNIKLSPCYSFNRH | 0.678 ± 0.31
78 | SLTGRWSTVGRSMGLNTRGG | inactive
79 | SLVAFPLFAGCVIW | inactive
80 | SLVIQKSFRGDGLRVRHGLQ | inactive
81 | SLVSGLRCVWLMFVSNGHQK | inactive
82 | SLVTYNVVRSKARNRWIELV | inactive
83 | SLYLGWVPAIELLG | inactive
84 | SLYMTVGESVPSMSASMYFG | inactive
85 | SLYRKGRHFGGCSCSIVRFR | 0.319 ± 0.78
86 | SLYRWYVQMRGIR | inactive
87 | SMASK | -0.64 ± 0.82
88 | SMEIGLGVEIYDVMRFGERM | inactive
89 | SMIGQSVEFYLISCYRGLCT | inactive
90 | SMLAFDLGGCAQTVTGWW | inactive
91 | SMLISRSEHLRLDTFGDSRY | 0.634 ± 0.13
92 | SMQGDRWFLVL | inactive

Row | Substance | amyloid nucleation score
93 | SMRILR | inactive
94 | SMRSGVLGHIIQTM | inactive
95 | SMSAMYDSAIVV | inactive
96 | SMSFTQFKGGGSIIITWCWP | inactive
97 | SMTHRPTAVHSDVHGQCVKW | inactive
98 | SNAHMCVRRTAWKNI | inactive
99 | SNCFRILYTCAVAQLPPCMR | inactive
100 | SNCSSWSSPV | inactive
101 | SNEHAVVYS | inactive
102 | SNGELTVEHQGLQPLGEKRT | inactive
103 | SNGHFAVGDDPEK | inactive
104 | SNGKVTLYKRLRDTSPQGIY | inactive
105 | SNGVRSRLLE | inactive
106 | SNGWFYFCFVSWWHSSFDGS | inactive
107 | SNHITRFQLESQTIPIISFV | inactive
108 | SNILAA | inactive
109 | SNITAVYAVVTNIRWLYVRT | inactive
110 | SNLRFFVAFLQGRSLN | 0.959 ± 0.23
111 | SNSRNSTGVVQMTRIPKMMR | inactive
112 | SNTCHLINAKVDPVHERMLS | 0.176 ± 0.85
113 | SNVEYCLYARLYLGCGVCHP | 0.176 ± 0.42
114 | SNVVSSI | inactive
115 | SNYCCRVSFVIKLLRMVYNF | 2.42 ± 0.08

Row | Substance | amyloid nucleation score
116 | SNYWNWGRGYVCSRFRELVI | inactive
117 | SPDHLGRLLY | inactive
118 | SPFEFRCIVESEFCMKNWAG | 0.866 ± 0.25
119 | SPRQHARCRTLTLTRTLRPM | inactive
120 | SQASLFFSGWWILFTYMLGW | inactive
121 | SQFTIVVTAVLVT | inactive
122 | SQLCITNSRW | inactive
123 | SQLQVISKIENSRKVIQRSS | inactive
124 | SQLVVLCCCRSPSFYCGVL | 1.32 ± 0.17
125 | SQVGWG | inactive
126 | SQYTRCSVYIVW | 1.43 ± 0.079
127 | SRCFNSGTYPEICVHRVLKV | inactive
128 | SRCRMIGMVISWNG | inactive
129 | SRDFVKYISEERS | inactive
130 | SREFSGCNNV | inactive
131 | SRFLKCF | inactive
132 | SRFQWLWKMCSNDG | inactive
133 | SRFYSDTQPTCGWKRVESRG | -0.897 ± 2.5
134 | SRHRNYHFCRILQCGFERSW | -0.526 ± 0.93
135 | SRIKD | inactive
136 | SRKCWAHKSIDVEVATSSAK | inactive
137 | SRKIFEGTIRIRLTDSASFS | inactive
138 | SRLDALLMKLCFVICLRILK | inactive

Row | Substance | amyloid nucleation score
139 | SRNPEAEHRIIMRAQSTGYF | inactive
140 | SRSSWGPSAIPYYKKLFMLF | inactive
141 | SRTVKSRGSAQQDCGRVLRD | inactive
142 | SRVILL | inactive
143 | SRYMNRR | inactive
144 | SSACYTVLPGKAPTPAYPLL | inactive
145 | SSARYPAGLIVLHWLGCLKA | inactive
146 | SSCRTRC | -0.405 ± 0.76
147 | SSDGFCLVIVYVCPSWYMLV | inactive
148 | SSDSKGFHGFGWFFWISLVT | inactive
149 | SSEHFGCEASGVAER | inactive
150 | SSFFRMLVLIVMRCQDTSNR | inactive
151 | SSFSFYYDFIHS | -0.433 ± 0.88
152 | SSGNMCFYPAPGYYWIATSK | inactive
153 | SSIGCPYLSYDYCFPTMWIW | inactive
154 | SSIGFLRSLGHQRPRSVSLP | inactive
155 | SSLLKFDFPVLPCHDLRLAL | inactive
156 | SSLRR | inactive
157 | SSLVL | inactive
158 | SSMWCMDRSLYTNYEYQRVL | 0.054 ± 0.36
159 | SSNRGFIIMFEFLASWGFLA | inactive
160 | SSSNLLKPSYFCKGSRGASQ | inactive
